Tested on: sheep
Assay: Papain-induced emphysema in sheep: lung physiology, plethysmography, CT
Type: in vivo
Excerpt: We examined the safety and utility of trypsin preconditioning for BVR in a group of seven sheep with emphysema generated by prior exposure to papain inhalation. This large animal model of emphysema is one with which we have extensive prior experience.

[1] = papain-induced emphysema, Campbell diagram

B1: papain: enzyme given by inhalation or instilled bronchoscopically to sheep to generate the emphysema model (protein, UniProt P00784 134-345, looked up)
Papain: IPEYVDWRQKGAVTPVKNQGSCGSCWAFSAVVTIEGIIKIRTGNLNEYSEQELLDCDRRSYGCNGGYPWSALQLVAQYGIHYRNTYPYEGVQRYCRSREKGPYAAKTDGVRQVQPYNEGALLYSIANQPVSVVLEAAGKDFQLYRGGIFVGPCGNKVDHAVAAVGYGPNYILIKNSWGTGWGENGYIRIKRGTGNSYGVCGLYTSSFYPVKN
2 weeks following serial papain exposure
  tissue density in Houndsfield units measured by CT scanning: significant decrease
After papain-induced emphysema, baseline 16.4 cm H2O
  recoil pressures at full inflation: 8.9 cm H2O
[1]
  change in TLC and RV: significant increase
  impact on active or passive chest wall mechanics: no significant impact
papain-treated vs untreated, 2 weeks after serial papain exposure
  lung volume measured by plethysmography: significant increase
post-papain vs baseline
  increase in airway resistance: 75±16%
  residual volume (RV) increased: 66±21%
  total lung capacity (TLC) increased: 10±3%
  vital capacity (VC) increased: 11±4%
post-papain vs baseline, normal respiratory frequencies
  increase in total lung resistance (sum of airway and tissue components): 40±9%

— patent US7819908B2, “Compositions and methods for reducing lung volume” (Aeris Therapeutics, Inc., priority 2002, dated 2010)
